# IntAct's records for PubMed 31515488
# B1: Keratin, type II cytoskeletal 6A (Homo sapiens), P02538 (parent)
# chain: MASTSTTIRSHSSSRRGFSANSARLPGVSRSGFSSVSVSRSRGSGGLGGACGGAGFGSRSLYGLGGSKRISIGGGSCAISGGYGSRAGGSYGFGGAGSGFGFGGGAGIGFGLGGGAGLAGGFGGPGFPVCPPGGIQEVTVNQSLLTPLNLQIDPTIQRVRAEEREQIKTLNNKFASFIDKVRFLEQQNKVLETKWTLLQEQGTKTVRQNLEPLFEQYINNLRRQLDSIVGERGRLDSELRGMQDLVEDFKNKYEDEINKRTAAENEFVTLKKDVDAAYMNKVELQAKADTLTDEINFLRALYDAELSQMQTHISDTSVVLSMDNNRNLDLDSIIAEVKAQYEEIAQRSRAEAESWYQTKYEELQVTAGRHGDDLRNTKQEIAEINRMIQRLRSEIDHVKKQCANLQAAIADAEQRGEMALKDAKNKLEGLEDALQKAKQDLARLLKEYQELMNVKLALDVEIATYRKLLEGEECRLNGEGVGQVNISVVQSTVSSGYGGASGVGSGLGLGGGSSYSYGSGLGVGGGFSSSSGRAIGGGLSSVGGGSSTIKYTTTSSSSRKSYKH
# partner: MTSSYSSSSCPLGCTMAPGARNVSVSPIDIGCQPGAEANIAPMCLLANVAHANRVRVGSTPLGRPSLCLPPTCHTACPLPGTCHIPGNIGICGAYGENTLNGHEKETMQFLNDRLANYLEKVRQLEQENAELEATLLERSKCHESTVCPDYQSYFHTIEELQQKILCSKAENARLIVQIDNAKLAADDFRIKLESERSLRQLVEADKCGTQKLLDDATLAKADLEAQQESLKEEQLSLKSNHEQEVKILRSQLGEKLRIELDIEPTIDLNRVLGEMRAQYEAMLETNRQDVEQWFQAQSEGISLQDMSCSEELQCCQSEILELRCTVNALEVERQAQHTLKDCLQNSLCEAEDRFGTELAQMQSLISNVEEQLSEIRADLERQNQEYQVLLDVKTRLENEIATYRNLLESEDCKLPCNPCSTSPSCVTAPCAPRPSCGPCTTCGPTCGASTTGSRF
# B2: Progranulin (Homo sapiens), P28799 (parent)
# chain: MWTLVSWVALTAGLVAGTRCPDGQFCPVACCLDPGGASYSCCRPLLDKWPTTLSRHLGGPCQVDAHCSAGHSCIFTVSGTSSCCPFPEAVACGDGHHCCPRGFHCSADGRSCFQRSGNNSVGAIQCPDSQFECPDFSTCCVMVDGSWGCCPMPQASCCEDRVHCCPHGAFCDLVHTRCITPTGTHPLAKKLPAQRTNRAVALSSSVMCPDARSRCPDGSTCCELPSGKYGCCPMPNATCCSDHLHCCPQDTVCDLIQSKCLSKENATTDLLTKLPAHTVGDVKCDMEVSCPDGYTCCRLQSGAWGCCPFTQAVCCEDHIHCCPAGFTCDTQKGTCEQGPHQVPWMEKAPAHLSLPDPQALKRDVPCDNVSSCPSSDTCCQLTSGEWGCCPIPEAVCCSDHQHCCPQGYTCVAEGQCQRGSEIVAGLEKMPARRASLSHPRDIGCDQHTSCPVGQTCCPSLGGSWACCQLPHAVCCEDRQHCCPAGYTCNVKARSCEKEVVSAQPATFLARSPHVGVKDVECGEGHFCHDNQTCCRDNRQGWACCPYRQGVCCADRRHCCPAGFRCAARGTKCLRREAPRWDAPLRDPALRQLL
# Variants of: B1
# Conditions: with krt38_human KRT38, O76015
row,Variant,effect of a mutation on the interaction
1,MASTSTTIRSHSSSRRGFSANSARLPGVSRSGFSSVSVSRSRGSGGLGGACGGAGFGSRSLYGLGGSKRISIGGGSCAISGGYGSRAGGSYGFGGAGSGFGFGGGAGIGFGLGGGAGLAGGFGGPGFPVCPPGGIQEVTVNQSLLTPLNLQIDSTIQRVRAEEREQIKTLNNKFASFIDKVRFLEQQNKVLETKWTLLQEQGTKTVRQNLEPLFEQYINNLRRQLDSIVGERGRLDSELRGMQDLVEDFKNKYEDEINKRTAAENEFVTLKKDVDAAYMNKVELQAKADTLTDEINFLRALYDAELSQMQTHISDTSVVLSMDNNRNLDLDSIIAEVKAQYEEIAQRSRAEAESWYQTKYEELQVTAGRHGDDLRNTKQEIAEINRMIQRLRSEIDHVKKQCANLQAAIADAEQRGEMALKDAKNKLEGLEDALQKAKQDLARLLKEYQELMNVKLALDVEIATYRKLLEGEECRLNGEGVGQVNISVVQSTVSSGYGGASGVGSGLGLGGGSSYSYGSGLGVGGGFSSSSGRAIGGGLSSVGGGSSTIKYTTTSSSSRKSYKH [P154S],with no effect

# Variants of: B2
# Conditions: with sgta_human SGTA
row,Variant,effect of a mutation on the interaction
1,MWTLVSWVALTAGLVAGTWCPDGQFCPVACCLDPGGASYSCCRPLLDKWPTTLSRHLGGPCQVDAHCSAGHSCIFTVSGTSSCCPFPEAVACGDGHHCCPRGFHCSADGRSCFQRSGNNSVGAIQCPDSQFECPDFSTCCVMVDGSWGCCPMPQASCCEDRVHCCPHGAFCDLVHTRCITPTGTHPLAKKLPAQRTNRAVALSSSVMCPDARSRCPDGSTCCELPSGKYGCCPMPNATCCSDHLHCCPQDTVCDLIQSKCLSKENATTDLLTKLPAHTVGDVKCDMEVSCPDGYTCCRLQSGAWGCCPFTQAVCCEDHIHCCPAGFTCDTQKGTCEQGPHQVPWMEKAPAHLSLPDPQALKRDVPCDNVSSCPSSDTCCQLTSGEWGCCPIPEAVCCSDHQHCCPQGYTCVAEGQCQRGSEIVAGLEKMPARRASLSHPRDIGCDQHTSCPVGQTCCPSLGGSWACCQLPHAVCCEDRQHCCPAGYTCNVKARSCEKEVVSAQPATFLARSPHVGVKDVECGEGHFCHDNQTCCRDNRQGWACCPYRQGVCCADRRHCCPAGFRCAARGTKCLRREAPRWDAPLRDPALRQLL [R19W],with no effect

# Variants of: B2
# Conditions: with otx1_human OTX1, P32242
# Sequence of otx1_human OTX1, P32242 (P32242 whole entry): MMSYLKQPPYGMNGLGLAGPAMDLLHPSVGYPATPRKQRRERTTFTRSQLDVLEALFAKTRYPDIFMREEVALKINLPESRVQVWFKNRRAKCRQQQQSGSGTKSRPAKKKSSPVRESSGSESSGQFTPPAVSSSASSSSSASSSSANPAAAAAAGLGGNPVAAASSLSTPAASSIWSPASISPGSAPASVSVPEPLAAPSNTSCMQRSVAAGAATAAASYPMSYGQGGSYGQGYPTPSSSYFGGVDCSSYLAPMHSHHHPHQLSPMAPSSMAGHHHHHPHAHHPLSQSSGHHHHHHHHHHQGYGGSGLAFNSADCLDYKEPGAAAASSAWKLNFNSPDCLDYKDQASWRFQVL
row,Variant,effect of a mutation on the interaction
1,MWTLVSWVALTAGLVAGTWCPDGQFCPVACCLDPGGASYSCCRPLLDKWPTTLSRHLGGPCQVDAHCSAGHSCIFTVSGTSSCCPFPEAVACGDGHHCCPRGFHCSADGRSCFQRSGNNSVGAIQCPDSQFECPDFSTCCVMVDGSWGCCPMPQASCCEDRVHCCPHGAFCDLVHTRCITPTGTHPLAKKLPAQRTNRAVALSSSVMCPDARSRCPDGSTCCELPSGKYGCCPMPNATCCSDHLHCCPQDTVCDLIQSKCLSKENATTDLLTKLPAHTVGDVKCDMEVSCPDGYTCCRLQSGAWGCCPFTQAVCCEDHIHCCPAGFTCDTQKGTCEQGPHQVPWMEKAPAHLSLPDPQALKRDVPCDNVSSCPSSDTCCQLTSGEWGCCPIPEAVCCSDHQHCCPQGYTCVAEGQCQRGSEIVAGLEKMPARRASLSHPRDIGCDQHTSCPVGQTCCPSLGGSWACCQLPHAVCCEDRQHCCPAGYTCNVKARSCEKEVVSAQPATFLARSPHVGVKDVECGEGHFCHDNQTCCRDNRQGWACCPYRQGVCCADRRHCCPAGFRCAARGTKCLRREAPRWDAPLRDPALRQLL [R19W],with no effect

# Variants of: B2
# Conditions: with hxa1_human HOXA1, P49639
# Sequence of hxa1_human HOXA1, P49639 (P49639 whole entry): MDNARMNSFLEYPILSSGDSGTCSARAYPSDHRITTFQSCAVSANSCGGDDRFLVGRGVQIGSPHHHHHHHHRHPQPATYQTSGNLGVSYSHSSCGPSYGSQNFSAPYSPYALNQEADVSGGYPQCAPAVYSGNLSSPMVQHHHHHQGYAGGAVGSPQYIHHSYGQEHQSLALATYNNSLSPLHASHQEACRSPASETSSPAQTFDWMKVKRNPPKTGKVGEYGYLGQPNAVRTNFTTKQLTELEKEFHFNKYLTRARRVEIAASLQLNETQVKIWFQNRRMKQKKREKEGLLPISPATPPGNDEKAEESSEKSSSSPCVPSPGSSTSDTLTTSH
row,Variant,effect of a mutation on the interaction
1,MWTLVSWVALTAGLVAGTRCPDGQFCPVACCLDPGGASYSCCRPLLDKWPTTLSRHLGGPCQVDAHCSAGHSCIFTVSGTSSCCPFPEAVACGDGHHCCPRGFHCSADGRSCFQRSGNNSVGAIQCPDSQFECPDFSTCCVMVDGSWGCCPMPQASCCEDRVHCCPHGAFCDLVHTRCITPTGTHPLAKKLPAQRTNRAVALSSSVMCPDARSRCPDGSTCCELPSGKYGCCPMPNATCCSDHLHCCPQDTVCDLIQSKCLSKENATTDLLTKLPAHTVGDVKCDMEVSCPDGYTCCRLQSGAWGCCPFTQAVCCEDHIHCCPAGFTCDTQKGTCEQGPHQVPWMEKAPAHLSLPDPQALKRDVPCDNVSSCPSSDTCCQLTSGEWGCCPIPEAVCCSDHQHCCPQGYTCVAEGQCQRGSEIVAGLEKMPARWASLSHPRDIGCDQHTSCPVGQTCCPSLGGSWACCQLPHAVCCEDRQHCCPAGYTCNVKARSCEKEVVSAQPATFLARSPHVGVKDVECGEGHFCHDNQTCCRDNRQGWACCPYRQGVCCADRRHCCPAGFRCAARGTKCLRREAPRWDAPLRDPALRQLL [R433W],with no effect
2,MWTLVSWVALTAGLVAGTRCPDGQFCPVACCLDPGGASYSCCRPLLDKWPTTLSRHLGGPCQVDAHCSAGHSCIFTVSGTSSCCPFPEAVACGDGHHCCPRGFHCSADGRSCFQRSGNNSVGAIQCPDSQFECPDFSTCCVMVDGSWGCCPMPQASCCEDRVHCCPHGAFCDLVHTRCITPTGTHPLAKKLPAQRTNRAVALSSSVMCPDARSRCPDGSTCCELPSGKYGCCPMPNATCCSDHLHCCPQDTVCDLIQSKCLSKENATTDLLTKLPAHTVGDVKCDMEVSCPDGYTCCRLQSGAWGCCPFTQAVCCEDHIHCCPAGFTCDTQKGTCEQGPHQVPWMEKAPAHLSLPDPQALKRDVPCDNVSSCPSSDTCCQLTSGEWGCCPIPEAVCCSDHQHCCPQGYTCVAEGQCQRGSEIVAGLEKMPARRASLSHPRDIGCDQHTSCPVGQTCCPSLGGSWACCQLPHAVCCEDRQHCCPAGYTCNVKARSCEKEVVSAQPATFLARSPHVAVKDVECGEGHFCHDNQTCCRDNRQGWACCPYRQGVCCADRRHCCPAGFRCAARGTKCLRREAPRWDAPLRDPALRQLL [G515A],with no effect

# Variants of: B2
# Conditions: with glrx3_human GLRX3, O76003
# Sequence of glrx3_human GLRX3, O76003 (O76003 whole entry): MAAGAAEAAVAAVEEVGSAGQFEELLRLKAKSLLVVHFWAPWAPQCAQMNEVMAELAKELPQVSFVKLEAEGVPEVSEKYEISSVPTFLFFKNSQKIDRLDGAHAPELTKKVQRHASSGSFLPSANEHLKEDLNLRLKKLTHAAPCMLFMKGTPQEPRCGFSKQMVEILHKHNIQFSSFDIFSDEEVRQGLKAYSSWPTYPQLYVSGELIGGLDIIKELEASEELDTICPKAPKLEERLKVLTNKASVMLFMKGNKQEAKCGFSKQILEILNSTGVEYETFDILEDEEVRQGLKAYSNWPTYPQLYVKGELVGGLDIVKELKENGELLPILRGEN
row,Variant,effect of a mutation on the interaction
1,MWTLVSWVALTAGLVAGTRCPDGQFCPVACCLDPGGASYSCCRPLLDKWPTTLSRHLGGPCQVDAHCSAGHSCIFTVSGTSSCCPFPEAVACGDGHHCCPRGFHCSADGRSCFQRSGNNSVGAIQCPDSQFECPDFSTCCVMVDGSWGCCPMPQASCCEDRVHCCPHGAFCDLVHTRCITPTGTHPLAKKLPAQRTNRAVALSSSVMCPDARSRCPDGSTCCELPSGKYGCCPMPNATCCSDHLHCCPQDTVCDLIQSKCLSKENATTDLLTKLPAHTVGDVKCDMEVSCPDGYTCCRLQSGAWGCCPFTQAVCCEDHIHCCPAGFTCDTQKGTCEQGPHQVPWMEKAPAHLSLPDPQALKRDVPCDNVSSCPSSDTCCQLTSGEWGCCPIPEAVCCSDHQHCCPQGYTCVAEGQCQRGSEIVAGLEKMPARWASLSHPRDIGCDQHTSCPVGQTCCPSLGGSWACCQLPHAVCCEDRQHCCPAGYTCNVKARSCEKEVVSAQPATFLARSPHVGVKDVECGEGHFCHDNQTCCRDNRQGWACCPYRQGVCCADRRHCCPAGFRCAARGTKCLRREAPRWDAPLRDPALRQLL [R433W],with no effect
2,MWTLVSWVALTAGLVAGTRCPDGQFCPVACCLDPGGASYSCCRPLLDKWPTTLSRHLGGPCQVDAHCSAGHSCIFTVSGTSSCCPFPEAVACGDGHHCCPRGFHCSADGRSCFQRSGNNSVGAIQCPDSQFECPDFSTCCVMVDGSWGCCPMPQASCCEDRVHCCPHGAFCDLVHTRCITPTGTHPLAKKLPAQRTNRAVALSSSVMCPDARSRCPDGSTCCELPSGKYGCCPMPNATCCSDHLHCCPQDTVCDLIQSKCLSKENATTDLLTKLPAHTVGDVKCDMEVSCPDGYTCCRLQSGAWGCCPFTQAVCCEDHIHCCPAGFTCDTQKGTCEQGPHQVPWMEKAPAHLSLPDPQALKRDVPCDNVSSCPSSDTCCQLTSGEWGCCPIPEAVCCSDHQHCCPQGYTCVAEGQCQRGSEIVAGLEKMPARRASLSHPRDIGCDQHTSCPVGQTCCPSLGGSWACCQLPHAVCCEDRQHCCPAGYTCNVKARSCEKEVVSAQPATFLARSPHVAVKDVECGEGHFCHDNQTCCRDNRQGWACCPYRQGVCCADRRHCCPAGFRCAARGTKCLRREAPRWDAPLRDPALRQLL [G515A],with no effect
